This is an account of results in US20230234997A1, “Compositions and Methods for the Treatment of Synucleinopathies” (SOLA BIOSCIENCES LLC, priority 2020, published 2023).

Residues, ends and D or L forms follow the SMILES beside them. *: point of attachment. Cbz = O=C(OCc1ccccc1)*

What all share (assay type): cell-based
In series [1] the target is T1, mutant (A53T) α-synuclein (Homo sapiens, UniProt P37840, A53T).
T1 construct: expressed in transfected cells; host or cells: HEK293
The series is described as follows: Immunoblot of total α-synuclein in lysates of transfected HEK293 cells. As to the method:
(§1) FIG. 3A: Wild type (WT) α-synuclein (Syn(WT): bars 1-3) or mutant α-synuclein (Syn(A53T): bars 4-6) was expressed alone or with a Flag epitope-tagged fusion protein comprising the J-domain DnaJB1 and a α-synuclein-binding domain (J-SynBP1: bars 2 and 5) or a control fusion protein construct comprising a mutated J-domain (containing a P33Q substitution) and a α-synuclein-binding peptide (J(MT)-SynBP1: bars 3 and 6) in HEK293 cells. Two days later, cells were homogenized in Tris buffer (10 mM Tris, pH7.4, 140 mM NaCl, 1 mM EDTA supplemented with protease inhibitor cocktail). Aggregation of mutant α-synuclein levels were quantified with sandwich ELISA, in which aggregated α-synuclein proteins were captured by coated-Syn-O4 antibody, followed by detection with HRP-conjugated anti-α-synuclein antibody (BioLegend: A15115A). FIG. 3B Lysates were prepared from HEK293 cells transiently transfected with wildtype Syn(WT) (lanes 1-3) or mutant Syn(A53T) (lane 4-6) alone or co-expressed with the fusion protein constructs. After brief sonication, the cell lysate was subjected to SDS-PAGE/immuno blotting with anti-α-synuclein antibody (Ab-2: top panel), Flag antibody (middle panel) or anti-Tubulin antibody (bottom panel).
Cells were transfected with either wildtype (lane 2) or mutant (lanes 3-8) α-synuclein, and also transfected with the JB1-SynBP1 fusion protein (lanes 4-8). […]
(§2) Expression vector plasmids encoding various protein constructs were transfected into HEK293 cells with Lipofectamine 3000 transfection reagent (Thermo Fisher Scientific). Cell lysates were analyzed for expressed proteins using immunoblot assays. […] After brief sonication, the samples were analyzed for expressed proteins using immunoblot assays. […]
(§3) Expressed proteins were detected using a chemiluminescent signal. […]
Expression vector plasmids encoding various protein constructs were transfected into HEK293 cells with Lipofectamine 3000 transfection reagent (Thermo Fisher Scientific). […] After brief sonication, cell lysates were analyzed in ELISA or immunoblotting assay.
On the technique in general: Immunoblotting shows a protein as a band on a membrane.

Series [2] addresses T1, mutant (A53T) α-synuclein. The series is described as follows: ELISA of aggregated α-synuclein (Syn-O4 capture) in lysates of transfected HEK293 cells.
Description: Cells were also treated with either Bafilomycin A1, an inhibitor of late phase autophagy (10 nM and 100 nM), or MG132, a proteasome inhibitor (0.1 μM and 1 μM). Aggregated synuclein in cell lysates were determined by ELISA using an anti-aggregated synuclein antibody.
Expression vector plasmids encoding various protein constructs were transfected into HEK293 cells with Lipofectamine 3000 transfection reagent (Thermo Fisher Scientific). One day after transfection, culture medium was replaced with fresh medium containing bafilomycin al (BFA) or MG132, and cells were incubated for additional 48 hours. Cells were lysed in lysis buffer (20 mM Tris, pH 7.4, 150 mM NaCl, 1 mM EDTA, 0.1% NP-40) supplemented with protease inhibitor cocktail (Complete Protease Inhibitor Cocktail; Sigma) and 2 mM PMSF. After brief sonication, cell lysates were analyzed in ELISA or immunoblotting assay.
The aggregation status of expressed α-synuclein was monitored with α-synuclein aggregate-specific antibody Syn-O4 (BioLegend). Syn-O4 is a conformation-specific monoclonal antibody that recognizes specifically α-synuclein aggregates but not the soluble, monomeric form of the protein^58. Microtiter plate wells were coated with Syn-O4 overnight at 4° C., and after coating, the wells were washed three times with PBS, blocked for one hour with PBS containing 1% BSA, and washed again with PBS. […]
In series [3] the target is T2, mutant (A53T) α-synuclein phosphorylated at Ser129 (Homo sapiens, UniProt P37840, A53T).
T2 construct: expressed in transfected cells
Description: Level of phosphorylated α-synuclein (Ser129) on co-expression of fusion protein constructs. Conditions: Table 13, wildtype alone = 100%, mutant alone = 92.1%.

The target of series [4] is T3, wildtype α-synuclein (Homo sapiens, UniProt P37840).
T3 construct: expressed in transfected cells; host or cells: HEK293
Description: Immunoblot of total α-synuclein in lysates of transfected HEK293 cells. The settings on record: wildtype Syn(WT), lanes 1-3. On the procedure:
as §1, with “FIG. 3B Lysates were prepared from HEK293 cells transiently transfected with wildtype Syn(WT) (lanes 1-3) or mutant Syn(A53T) (lane 4-6) alone or co-expressed with the fusion protein constructs. After brief sonication, the cell lysate was subjected to SDS-PAGE/immuno blotting with anti-α-synuclein antibody (Ab-2: top panel), Flag antibody (middle panel) or anti-Tubulin antibody (bottom panel).” left out
as §2, §3

The target of series [5] is T3, wildtype α-synuclein. Description: ELISA of aggregated α-synuclein (Syn-O4 capture) in lysates of transfected HEK293 cells. Conditions: co-expression with wildtype α-synuclein, ELISA on cell lysates, bars 1-3. As to the method:
as §1, with “FIG. 3B Lysates were prepared from HEK293 cells transiently transfected with wildtype Syn(WT) (lanes 1-3) or mutant Syn(A53T) (lane 4-6) alone or co-expressed with the fusion protein constructs. After brief sonication, the cell lysate was subjected to SDS-PAGE/immuno blotting with anti-α-synuclein antibody (Ab-2: top panel), Flag antibody (middle panel) or anti-Tubulin antibody (bottom panel).” left out
as §2
The aggregation status of expressed α-synuclein was monitored with α-synuclein aggregate-specific antibody Syn-O4 (BioLegend). […]
In general terms: In an ELISA, binding on a coated surface is turned into a signal by an enzyme label.

[6] abbreviates: HEK293, BFA at either 10 nM or 100 nM.
[7] abbreviates: HEK293, MG132 (0.1 μM and 1 μM).

Take `CO/C1=C\C(C)=C\[C@@H](C)[C@@H](O)[C@@H](C)C/C(C)=C/C=C/[C@H](OC)[C@@H]([C@@H](C)[C@@H](O)[C@H](C)[C@@]2(O)C[C@@H](O)[C@H](C)[C@@H](C(C)C)O2)OC1=O` [BFA, Bafilomycin A1, reference compound]: the “effect of inhibitor on total α-synuclein in cells expressing mutant α-synuclein and construct 1” value in series [1] (setting [6]) is “restoration of total and aggregated α-synuclein to levels matching cells expressing mutant α-synuclein alone”. In addition, in series [2] (setting [6]), the “effect of inhibitor on aggregated α-synuclein in cells expressing mutant α-synuclein and construct 1” value was “restoration of total and aggregated α-synuclein to levels matching cells expressing mutant α-synuclein alone”.

For “Construct 10: J domain from human DnaJB1 fused to 4XGGGGS linker, in turn, fused on its C-terminus to QBP1”, the “ability to reduce mutant (A53T) synuclein aggregation (Table 11)” value in series [2] (Mutant (A53T)) is recorded as “potently reduce α-synuclein aggregation”.

As to `CC(C)C[C@@H](C=O)NC(=O)[C@H](CC(C)C)NC(=O)[C@H](CC(C)C)NC(=O)OCc1ccccc1` [MG132, reference compound] (Cbz-Leu-Leu-Leu-aldehyde), the “effect of inhibitor on total level of α-synuclein in cells expressing mutant α-synuclein and construct 1” value in series [1] (setting [7]) is “little effect”. In series [2] (setting [7]), the “effect of inhibitor on aggregated level of α-synuclein in cells expressing mutant α-synuclein and construct 1” value is recorded as “little effect”.

Consider “Construct 11: J domain from human DnaJB1 fused on its C-terminus to SynBP1 (with flexible GGGGS linker)”, for which, in series [3], the “Phosphorylated α-synuclein” value is 19.1%.

For the compound “Construct 2: Same as construct 1, but containing a P33Q mutation within the J domain (control)”, the “overall level of α-synuclein (FIG. 3B, Western blot)” value in series [1] (HEK293 cells, mutant Syn(A53T), lanes 4-6) is on record as “relatively similar levels”; in series [4] it was “relatively similar levels”. Also, the “amount of detectable aggregated α-synuclein (FIG. 3A)” value in series [5] is recorded as “higher overall aggregation”.

Regarding “Construct 12: J domain from human DnaJB1 fused on its C-terminus to SynBP1 (with rigid EAAAK linker)”, the “Phosphorylated α-synuclein” value in series [3] worked out at 23.1%.

Consider “Construct 13: J domain from human DnaJB1 fused on its C-terminus to SynBP1 (no linker)”, for which the “Phosphorylated α-synuclein” value in series [3] amounted to 4.5%.
